Reference: patent publication CN112062838A (UNIV NANJING MEDICAL, dated 2020)
Values joined by “and” are separate entries in the source; they are usually repeats but may differ in a detail not shown here. Equal values may be shown once.

B1: 4D8-hFc重组蛋白 (单域抗体4D8, purified) (Fc fusion, not shown: a dimerising Fc or GST)
chain: QVQLVQSGGGLVQPGGSLRLSCAASDFDFYDYEMSWVRQAPGKALEWIGEIHHSGSTYYNPSLKSRVTISRDNSKNTLYLQMNTLRAEDTAIYYCVKDFVGADGPFVFDYWGQGTLVTVSS
B2: 4D8克隆 (4D8噬菌体, phage-displayed single-domain antibody clone) (VHH)
VHH: B1 chain
notes: also called 富集克隆4D8

How the values were obtained:
[1] = biological target: SARS-CoV-2 spike (D614) on pseudovirus (SARS-CoV-2, UniProt P0DTC2 14-1273); assay: cell-based or functional assay
SARS-CoV-RBD-hFc = biological target: T1, SARS-CoV-RBD-hFc (SARS-CoV, UniProt P59594 306-527); assay: phage ELISA, antigen coated at 5μg/ml, anti-M13 HRP detection
T1 construct: domain: RBD

Binder	伪病毒中和 IC50 (Luciferase活性, CHO-ACE2细胞) [1]	binding result (SARS-CoV-RBD-hFc)
B1	1.13 μg/ml and 15 nM	–
B2	–	no binding
